Assay results: patent publication US20110207796A1, “ALPHA-SYNUCLEIN KINASE” (Elan Pharma International Limited, priority 2008, published 2011)

Molecular target: human alpha-synuclein (wild-type, recombinant) (human)
Assay: cell-based or functional assay

Chain of Polo like kinase 2 (PLK2) (enzyme) (chain): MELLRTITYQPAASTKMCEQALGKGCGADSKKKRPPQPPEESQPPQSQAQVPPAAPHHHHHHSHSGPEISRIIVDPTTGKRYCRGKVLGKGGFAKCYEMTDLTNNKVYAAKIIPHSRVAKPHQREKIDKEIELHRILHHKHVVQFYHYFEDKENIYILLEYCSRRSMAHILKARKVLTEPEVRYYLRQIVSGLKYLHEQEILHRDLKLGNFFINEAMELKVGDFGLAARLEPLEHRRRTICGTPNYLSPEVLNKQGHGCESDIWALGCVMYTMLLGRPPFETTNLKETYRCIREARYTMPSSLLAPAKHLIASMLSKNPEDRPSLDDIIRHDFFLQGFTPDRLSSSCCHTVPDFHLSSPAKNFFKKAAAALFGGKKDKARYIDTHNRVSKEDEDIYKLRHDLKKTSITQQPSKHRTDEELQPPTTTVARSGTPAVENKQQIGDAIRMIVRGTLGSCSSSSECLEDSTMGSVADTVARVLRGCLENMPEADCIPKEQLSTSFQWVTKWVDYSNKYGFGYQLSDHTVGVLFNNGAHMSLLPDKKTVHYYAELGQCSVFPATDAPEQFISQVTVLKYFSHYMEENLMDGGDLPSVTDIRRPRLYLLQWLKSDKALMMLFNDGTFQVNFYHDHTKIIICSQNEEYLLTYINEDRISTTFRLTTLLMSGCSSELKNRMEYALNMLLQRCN
Chain of G protein-coupled receptor kinase 6 (P43250 whole entry): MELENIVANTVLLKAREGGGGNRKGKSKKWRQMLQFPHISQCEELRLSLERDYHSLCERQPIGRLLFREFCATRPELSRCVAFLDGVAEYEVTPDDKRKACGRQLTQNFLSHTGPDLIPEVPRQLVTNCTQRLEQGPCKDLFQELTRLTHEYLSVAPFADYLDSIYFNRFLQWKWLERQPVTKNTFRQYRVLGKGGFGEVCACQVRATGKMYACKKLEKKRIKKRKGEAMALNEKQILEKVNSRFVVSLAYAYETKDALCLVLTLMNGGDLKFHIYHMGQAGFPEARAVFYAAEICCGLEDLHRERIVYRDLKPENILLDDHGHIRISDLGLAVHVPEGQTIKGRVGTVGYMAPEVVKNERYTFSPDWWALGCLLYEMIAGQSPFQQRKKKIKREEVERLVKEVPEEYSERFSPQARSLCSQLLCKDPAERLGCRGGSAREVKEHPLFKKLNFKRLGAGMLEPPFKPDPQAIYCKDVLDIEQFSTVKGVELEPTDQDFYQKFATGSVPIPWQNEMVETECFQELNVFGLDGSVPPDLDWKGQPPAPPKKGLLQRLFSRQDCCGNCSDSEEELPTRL
Chain of Aortic preferentially expressed gene 1 (Q15772 other isoform, or with tags, fused parts or gaps limits assumed): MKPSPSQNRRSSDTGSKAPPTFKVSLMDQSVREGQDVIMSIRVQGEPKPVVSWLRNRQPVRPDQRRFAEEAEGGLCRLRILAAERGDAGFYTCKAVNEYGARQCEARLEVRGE
Chain of CDC7 cell division cycle 7-like 1 (O00311 whole entry): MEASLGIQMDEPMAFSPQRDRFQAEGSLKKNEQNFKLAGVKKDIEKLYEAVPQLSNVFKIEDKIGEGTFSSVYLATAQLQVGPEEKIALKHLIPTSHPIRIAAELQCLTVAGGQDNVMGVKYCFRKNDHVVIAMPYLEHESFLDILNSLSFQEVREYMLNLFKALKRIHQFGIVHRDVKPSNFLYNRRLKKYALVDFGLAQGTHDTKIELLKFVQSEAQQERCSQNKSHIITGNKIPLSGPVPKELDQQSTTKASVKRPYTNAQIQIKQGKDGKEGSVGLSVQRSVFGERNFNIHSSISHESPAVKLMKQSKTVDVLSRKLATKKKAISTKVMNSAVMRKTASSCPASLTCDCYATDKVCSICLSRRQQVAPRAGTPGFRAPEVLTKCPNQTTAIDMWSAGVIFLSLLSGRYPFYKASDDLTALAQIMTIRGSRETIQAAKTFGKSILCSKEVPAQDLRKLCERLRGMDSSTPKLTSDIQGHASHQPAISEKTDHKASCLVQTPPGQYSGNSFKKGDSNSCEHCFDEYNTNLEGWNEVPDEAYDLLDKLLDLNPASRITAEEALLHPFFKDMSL

Substance | percentage of phospho-synuclein by ELISA, cDNA transfected into PEAK-Syn cells [%] | percent phospho-synuclein by ELISA, cDNA transfected into PEAK-Syn cells [%] | other results
Aortic preferentially expressed gene 1 (from UniProt Q15772 1-113) (enzyme) | 8.9 |  | 
CDC7 cell division cycle 7-like 1 (from UniProt O00311 1-574) (enzyme) | 8.9 |  | 
G protein-coupled receptor kinase 6 (from UniProt P43250 1-576) (enzyme) |  | 18.9 | 
Polo like kinase 2 (PLK2) (enzyme) |  | 33.2 | percent phospho-synuclein by ELISA, PLK2 alone transfected into HEK-synuclein cells: 18.6%; percent phospho-synuclein by ELISA, PLK2 and synuclein co-transfected into naive HEK cells: 60%; percent synuclein phosphorylation by ELISA, PLK2 positive control in HEK-syn cells: 65.8%; phospho-synuclein by ELISA, PLK2 cDNA transfected into 293-synuclein cells: 4.3 fold
